Data as given in patent US20080281082 (published 2008).
Where a chain is given by its changes, count along the chain named.

B1: humanized 3D6v2 (antibody, V domains shown)
VH: EVQLLESGGGLVQPGGSLRLSCAASGFTFSNYGMSWVRQAPGKGLEWVASIRSGGGRTYYSDNVKGRFTISRDNSKNTLYLQMNSLRAEDTAVYYCVRYDHYSGSSDYWGQGTLVTVSS
VL: DVVMTQSPLSLPVTPGEPASISCKSSQSLLDSDGKTYLNWLLQKPGQSPQRLIYLVSKLDSGVPDRFSGSGSGTDFTLKISRVEAEDVGVYYCWQGTHFPRTFGQGTKVEIK
B2: humanized 3D6v1 (antibody, V domains shown)
VH: B1 VH with S75A, T78S, V93L
VL: B1 VL with D1Y

Molecular target: Aβ (beta amyloid peptide) (human)
Assay: SPR

| Binder | Kd |
| --- | --- |
| B1 | 2.24 nM |
| B2 | 2.06 nM |
